Experiment: soluble on expression in E. coli; label from the status in PepcDB or PDB records
For “MAHHHHHHMQTVPSFQKTTSFHCSKAGRVLYSFREASRISGTHLPIVSAVDSYTLDSVFSEEVRPSFKSFAVDPSDRYCAAILDQDIDSVIRLFSLSAGPYPDHGAFASPAVQEEQDSAMGADEEEMEQWSIEDDDYDTDDSTDSNDDEFEEDEDDDDDSYDEEDAEEEFEEWEEEDEEESSPGTGSGSDEQEGTQASSRHAN”, the “soluble on expression in E. coli” value was “soluble”. For “MGSDKIHHHHHHMSLHAPTFSKLFSGVIWKIIADSDTGTVYVETRDGDKRKALFHAFDLQAKKMLWADVSILDAWWSSLKIANKGNLLVVKFNDPDMPEQRGFAVIDGKTSKLLWGKDDAQVMQAEPDGIIVAEGKEEDSSYLKLDWAAGKTLGAVSVKEMFSGFNKKAQTRSFVLYPFHFEEENSFFSKIKEYIEIITGHKAVRMIEYLEKGDKVLISYYIYEEEKLTNFILVADEKGALLVHEKLNAGLKGIGMDTFFVLKDQLIVVKNNNELQSYVIK”, the “soluble on expression in E. coli” value was “not soluble”. For “MDISIEFGLYPTESDLTELQQYFPDTNLKKLYEVEAYHKKLETILDSEFSTERESLIAEIDELESQLTTLNQELQELGNIPNLSSEYLENYSKLTATINALKEQNEAYLKESGLSKEKSETDADLKRSTEDILLDLEVKINSKMREVNNILYPDIRKAPQINLNAHNSYSFYTPDDDGTGTKFKGMIVFDLVMLYLTNLPALAHDSLLLSNVSYQATEALLKLYDQSRSLNKQVFLVFDKASSYSPDANQLLSENTVLRLSSNGNELYGISWNKGENSDEI”, the “soluble on expression in E. coli” value was “not soluble”. For “MGSDKIHHHHHHMTRYQHLAGLLEQRIEQGLYQSGERLPSVRALSTEHGVSISTVQQAYHLLETRQLIMPQPRSGYFVTPRKATPPVPALTRPAQRPVEITQWESVLELVNVRLETNVLKFGSGMPDVSQPTIKPLWKEMSRLCQYQDPRVLQYDSVYGVPALREQIARLTVDCGCQLNQDDIVITTGCQEALFVAVRAVCQPGDIVAVESPAFPGTMQILRGLDIKAIEIPTDSVTGISLEALRLALDQWPVKAVLLVPSCNNPLGFIMPDARKKSLVTLAQHFDIAIIEDDAYGELAYEYPRPRAIKSFDEDGRVLLCSSFSKNLAPGLRVGWIAPGRYLERVIHTKYISTGSTVVQPQLAVAEFIRRGHYQPHLRRMRAQYKANLDIFTCWVREYFPSNICVSRPQGGFLVWIELPEYFDSLKLAREVRKAGIQIAAGSLFSASGKYRNCIRLNYANRFTEEMREGLRIVGSEVAKMMHTLPDQSAP”, the “soluble on expression in E. coli” value was “not soluble”. In the case of “MGSDKIHHHHHHMAETSIEWTDVTWNPVAGCTVLTAGCTNCYAMRMAARLEAMGVEKYAGLTRKSGGRAKWTGRIFLDRKALSIPASWSKPRRVFVNSMSDLFHSDVPTDFISDVWKVMAQTPRHTYQILTKRPDRMVEIVPGLAKLRNVWLGTSVEDARVIYRIDKLRQVPAAVRFVSFEPLIGSVSGAGLRNIHWAIVGGESGPKARSMDPAWVDEIESMCRDQGAAFFFKQWGGKNKKAAGRTLNGRLYDEMPAPSMP”, the “soluble on expression in E. coli” value is reported as “not soluble”. In the case of “MGSDKIHHHHHHMLCALKHLFQGEPQQQAVSGLISTSYTDNDGETRISLKLEPRYENAGEVITKLVELDADPQVVRVGIQSSSIASFGSLENLVNAYGTLYRYLKDNYDSPAKLKKYWGYLANDVVFIQISTDVSSALKIFETINERGVGLNPMDLLKNLLFTQVGQAQFTQLKDEWKKITRPLEKGKEKPLFDHFVMQLENFLFYYIFTKTPTRDMERSFSQWANELRAIADAAECRCHNQWQGIDS”, the “soluble on expression in E. coli” value is reported as “not soluble”. With “GSQEQKGDAPTCGICHKTKFADGCGHNCSYCQTKFCARCGGRVSLRSNKVMWVCNLCRKQQE” the “soluble on expression in E. coli” value was “soluble”. For “MSLTKIKNIKTKVYQWNGKTVPPKNNFCTNASDILYEKSDAMGSFRFHEWLICEIETDDGVFGIGNAALAPQIVKKTIDTYLKPLVVGEDPFDYAYIWEKMYRRTHAWGRRGIGMIAMSAIDIGIWDILGKITNKPVFKLLGGRTKEKIPVYASKLYSQPLNELQKEAETYKNQGFKMYKMSFGWGPKDGPEGMKKNIDLVEAVREVIGDDSDLMLESYMGWNLDYSKRIIPKLIKFNPRWLEEPVIADDIAGYSELNKMGVIPISGGEHEFNLFGFKQLLDLKAVSYIQYDTNRVGGITAAQKINALAESFQVPVVPHAGQMHNYHLTMANFNCPISEYFPVHDVEVGNELFYYIFEGDPEPKNGNINLDDNIPGLGLKISDKYKSDFNIIDEGHHHHHH”, the “soluble on expression in E. coli” value was “soluble”. With “MGSDKIHHHHHHMQIDQIETFLDLLETQSFNRTADRLDVTQSTVSGRVKALEKALGERLFERSRSGTQPTTAALRFETHARVLRRAWADGQADVKPFGTAVMLRIGIQHDLIDNHVADWLAALRQALPECGFYVDGDYSTQMCRDLETGALDLGVVFTPRPSPDLYFESMGEVTYQMVSTAQTSLPQIDPTNYILPNYAPAFAQTHAALLPGLSLGSVSSGQAAAVRGLLIALGGTTYLPTEMVSALITEGIAHHVPGAPDITQPVFVAMHLRNRHRAGYRRMANVLRDRVGT” the “soluble on expression in E. coli” value was “not soluble”. For “MAHHHHHHMSLPRRMCMFATCQSNRKSCSMRQSSVTSEGYRYSSTFAAGRLFDAVYVINLDRRPDRWEFATQQLSRAGFLHEEYVRFPAVDGRNVDLQKAHACGLISRLGLLRLQEPEHRRIWGMDLNPGAVGCALSHALLWAQIAASRHRSVLVVEDDSLFPQDFHHKYEARAKQVPSDWELLYVSGLDTAGQAPQLRVAEGVCRVPQMHRTTNCYVVSHRGARLLLDACFPVTYQLDTMMTLRTAGDGAGGVPYVTVPNCYTLQPPLVVQATRMGSDIQSASGGVCDRDEVEEERARCRAAGWEVQETGTLVP”, the “soluble on expression in E. coli” value was “not soluble”. In the case of “MKFVLAVHGTRGDVEPCAAVGVELRRRGHAVHMAVPPNLIEFVESAGLTGVAYGPDSDEQINTVAAFVRNLTRAQNPLNLARAVKELFVEGWAEMGTTLTTLADGADLVMTGQTYHGVAANVAEYYDIPAAALHHFPMQVNGQIAIPSIPTPATLVRATMKVSWRLYAYVSKDADRAQRRELGLPPAPAPAVRRLAERGAPEIQAYDPVFFPGLAAEWSDRRPFVGPLTMELHSEPNEELESWIAAGTPPIYFGFGSTPVQTPVQTLAMISDVCAQLGERALIYSPAANSTRIRHADHVKRVGLVNYSTILPKCRAVVHHGGAGTTAAGLRAGMPTLILWDVADQPIWAGAVQRLKVGSAKRFTNITRGSLLKELRSILAPECAARAREISTRMTRPTAAVTAAADLLEATARQTPGSTPSSSPGR”, the “soluble on expression in E. coli” value is reported as “not soluble”. For “MDKNWMIAMHNPATIYNPNAQTEFVEFPIYTVLIDHPEGKILFDTACNPNSMGPQGRWAEVTQQMFPWNASEECYLHNRLEQLKVRPEDIRYVVASHLHLDHAGCLEMFTNATIIVHEDEFNGALQCYARNQKEGAYIWADIDAWIKNNLQWRTVKRHEDNILLAEGVRVLNFGSGHAWGMLGLHVELPETGKIILASDAIYTAENYGPPVKPPGIIYDSLGYVNTVERIRRIAQETNSKIWFGHDAEQFKQFRKSTEGYYE”, the “soluble on expression in E. coli” value was “not soluble”. For “MAKVSVVMPVYNSEKYLKESIESILNQSYSDLEFIIINDGSTDNSFKIIKEYAKLDKRINVISRENKGIVYSLNEAIRLAKGEYIARMDADDISAPKRIEKQISFLKSHRDIDILGTQVKVVGNISNDIKEKNENKLNIEFDIYDDNREKILNYWYCLAHPSVMFRKDILRELKGYNDFKSEDLDLWLRAIESGFKIYKLKEELIYFRMHEESKTRVDNQNYEGLKDGIKIKLIDVFKREFKKDFKYIVWGASNGGKITKEVLDEFFEKSQCIAFVDKFKTGEFEKIRILHPKDINHIKFDYVFIATEPGKEEAMSSLKSMGLKCIKDFLSTVLEHHHHHH”, the “soluble on expression in E. coli” value was “not soluble”. In the case of “MKVISNAEFGGERPLFESHDLRLENVIIRAGESAIKECSNIEAVDCRFEGNYPFWHVHGFVIDRCFFDVGGRSALWYSDNLKMTNTRIDAPKMFREMHDIEIENVEIKDADEVFWRCKNLDIKNLKLHGGTYPFMFSSNIRIDGLESDSKYVFQYVKNVELRNAKITTKDAFWEVENVTIYDSELNGEYLGWHSHNLRLVNCHITGEQPLCYAHDLVLENCTFGPDCDRAFEYSSVQATIKGAIGGVKNPRTGCITAESYGEIILDENIKAPADCKLKLWDEKTCFTD”, the “soluble on expression in E. coli” value is reported as “soluble”. In the case of “MSLTANREAIDMARVAAGAAAAKLADDVVVIDVSGQLVITDCFVIASGSNERQVNAIVDEVEEKMRQAGYRPARREGAREGRWTLLDYRDIVVHIQHQDDRNFYALDRLWGDCPVVPVDLSANSAGAQEGHHHHHH”, the “soluble on expression in E. coli” value is reported as “soluble”. With “MGSDKIHHHHHHMKIVKFGGSSLSSGVQIRKVFQIVKSDPERRIVVVSAPGKRFKGDVKITDLLLKLAEAILNEEKTAQIYEQIFLRYQAIGDFFKIPRSGIEQLKEHLYSVAQADYPSNDFFRAALSAQGENMSAHLITLIFKQLGLKARLLTPKEVGLTVSGEARKAQILPGSYAKIAKTKFTDNEVLIFPGFFGITKNGLINTFSRGGSDITGAILARGFGADLYENFTDVDSIYAVNPGLVADPAPIKEMTYNEMRELSYAGFAVFHDEAILPAIQGKIPICVKNTNRPEMPGTKIVPRDKVSHKNKITGIASSHHFQAIYLHRYLINREVGFTAKILKIMADLNISYEHMPSGIDDLTIILDKNQLTNGRKEKLTQRIKDEIQPDDLQWRNDYAIIMVVGEGLVNRVGAMADIVDPIRDAGISLTMVNQGSSEISIMLGVRPEDEQKAVKAIYNDHFENGHPKKELQIPRASFKSVSKSLIANFFV” the “soluble on expression in E. coli” value was “not soluble”. With “DAAPAPAAEAAPAAAPAPAAAAELKEVHVPDIGGDEVEVTEIMVAIGDSIEEEQSLITVEGDKASMEVPAPFAGTLKEIKVAAGDKVSTGSLIMVFETAGSGAPAAPAAVEAPAAAAPAASAA” the “soluble on expression in E. coli” value was “not soluble”. With “MALTEQKRVRLEKLSDENGIISALAFDQRGALKRLMVKHQTEEPTVAQMEELKVLVADELTKYASSMLLDPEYGLPATKALDEKAGLLLAYEKTGYDTTSTKRLPDCLDVWSAKRIKEEGADAVKFLLYYDVDSSDELNQEKQAYIERIGSECVAEDIPFFLEILAYDEKIADAGSVEYAKVKPHKVIGAMKVFSDPRFNIDVLKVEVPVNIKYVEGFAEGEVVYTREEAAAFFKAQDEATNLPYIYLSAGVSAKLFQDTLVFAHESGANFNGVLCGRATWAGSVEAYIKDGEAAARECVRTTGFENIDELNKVLQRTATSWKERV” the “soluble on expression in E. coli” value was “soluble”. With “MKIKLEHGAGGELMEELIRDVILKNLTLNSAGGIGLEALDDGATIPFEGKHLVFTIDGHTVRPLFFPGGDIGRLAVSGTVNDLAVMGAKPLALASSLIIGEGFDSDKLEEILKSMNRTAKEVPVPIITGDTKVVEDNIEIFVITAGIGIAEKPISDAGAKVGDLVLVNGTIGDHGIALMSHREGISFETELKSDVAPIWDVVKTVADAIGWENIHAMKDPTRGGLSNALNEMARKADVGILVRESDIPIRPEVKAAGDMLGISPYDVANEGKVIMVVDREYAEDALEAMRKTEKGKDAAIIGEIIKDYPGKVILETGIGGRRFLEPPIGDPVPRVC” the “soluble on expression in E. coli” value was “soluble”. In the case of “SNAMKFELPKLPYAVDALESTISKETIEYHYGKHHQTYVTNLNNLVEGTEHDGRNLEEIVKTSNGGIFNNAAQVFNHTFYWNCLTPNKTEASSQLKAALIETFGSVENFKEQFSKAAIATFGSGWAWLVKNTEGKLEIVTTSNAGCPLTENKKPLLTFDVWEHAYYIDYRNARPKYVEALWDIVNWQFVSEQFAD”, the “soluble on expression in E. coli” value is reported as “soluble”. In the case of “MSRYCSECGKARKACLCPSIVALESAVELIILQHPTEQKRPLGTARILSLSLANCRLLVGEDFREHDELNQLLAEPDVDYYVLYPNEHAQECTKISLTTARKTRVILLDGTWKKAYKMWQINTQLHDLPSLHLPDECVGHYRIRKAPDDTALSTVEAGYHLLQQWQPERDFSPLLKVFDAMIQYQIDQMPEGVFERNYRQLEHHHHHH”, the “soluble on expression in E. coli” value is reported as “not soluble”. With “MKIIITGEPGVGKTTLVKKIVERLGKRAIGFWTEEVRDPETKKRTGFRIITTEGKKKIFSSKFFTSKKLVGSYGVNVQYFEELAIPILERAYREAKKDRRKVIIIDEIGKMELFSKKFRDLVRQIMHDPNVNVVATIPIRDVHPLVKEIRRLPGAVLIELTPENRDVILEDILSLLER” the “soluble on expression in E. coli” value was “soluble”.

— the DeepSol protein solubility set
